Results: patent US20230357348A1 (AstraZeneca / MedImmune, published 2023)
Starred links: 1 amine or outer side, 2 acyl side, 3 side chain; linkers in the order of their positions; H or OH if unused. Non-standard residues stand in square brackets, D forms with d. Groups on a side chain read outwards from the residue. Primed or numbered codes have the meaning given here. No end group written: not given here. *: point of attachment. C20 diacid = O=C(O)CCCCCCCCCCCCCCCCCCC(=O)*; C18 diacid = O=C(O)CCCCCCCCCCCCCCCCC(=O)*; γGlu = O=C(O)[C@H](CCC(=O)[*:2])N[*:1]; αMeF = C[C@](N)(Cc1ccccc1)C(=O)O; (PEG)2 = polyethylene glycol 2; PEG4 = NCCOCCOCCOCCOCCC(=O)O; PEG4′ = polyethylene glycol; AEEA = NCCOCCOCC(=O)O; Aib = CC(C)(N)C(=O)O

B1: Peptide 261 (peptide)
peptide: H[Aib]HGS[αMeF]TSDVSK[αMeF]LDSRAAK([PEG4-γGlu-C18 diacid])D[αMeF]VQ[Aib]IANT-NH2
modifications: N-terminus assumed
SMILES: CC[C@H](C)[C@H](NC(=O)C(C)(C)NC(=O)[C@H](CCC(N)=O)NC(=O)[C@@H](NC(=O)[C@](C)(Cc1ccccc1)NC(=O)[C@H](CC(=O)O)NC(=O)[C@H](CCCCNC(=O)CCOCCOCCOCCOCCNC(=O)CC[C@H](NC(=O)CCCCCCCCCCCCCCCCC(=O)O)C(=O)O)NC(=O)[C@H](C)NC(=O)[C@H](C)NC(=O)[C@H](CCCNC(=N)N)NC(=O)[C@H](CO)NC(=O)[C@H](CC(=O)O)NC(=O)[C@H](CC(C)C)NC(=O)[C@](C)(Cc1ccccc1)NC(=O)[C@H](CCCCN)NC(=O)[C@H](CO)NC(=O)[C@@H](NC(=O)[C@H](CC(=O)O)NC(=O)[C@H](CO)NC(=O)[C@@H](NC(=O)[C@](C)(Cc1ccccc1)NC(=O)[C@H](CO)NC(=O)CNC(=O)[C@H](Cc1c[nH]cn1)NC(=O)C(C)(C)NC(=O)[C@@H](N)Cc1c[nH]cn1)[C@@H](C)O)C(C)C)C(C)C)C(=O)N[C@@H](C)C(=O)N[C@@H](CC(N)=O)C(=O)N[C@H](C(N)=O)[C@@H](C)O
B2: Peptide 268 (peptide)
peptide: H[Aib]HGS[αMeF]TSDVSK[αMeF]LDSRAAK([AEEA-γGlu-C20 diacid])D[αMeF]VQ[Aib]IANT-NH2
modifications: N-terminus assumed
SMILES: CC[C@H](C)[C@H](NC(=O)C(C)(C)NC(=O)[C@H](CCC(N)=O)NC(=O)[C@@H](NC(=O)[C@](C)(Cc1ccccc1)NC(=O)[C@H](CC(=O)O)NC(=O)[C@H](CCCCNC(=O)COCCOCCNC(=O)CC[C@H](NC(=O)CCCCCCCCCCCCCCCCCCC(=O)O)C(=O)O)NC(=O)[C@H](C)NC(=O)[C@H](C)NC(=O)[C@H](CCCNC(=N)N)NC(=O)[C@H](CO)NC(=O)[C@H](CC(=O)O)NC(=O)[C@H](CC(C)C)NC(=O)[C@](C)(Cc1ccccc1)NC(=O)[C@H](CCCCN)NC(=O)[C@H](CO)NC(=O)[C@@H](NC(=O)[C@H](CC(=O)O)NC(=O)[C@H](CO)NC(=O)[C@@H](NC(=O)[C@](C)(Cc1ccccc1)NC(=O)[C@H](CO)NC(=O)CNC(=O)[C@H](Cc1c[nH]cn1)NC(=O)C(C)(C)NC(=O)[C@@H](N)Cc1c[nH]cn1)[C@@H](C)O)C(C)C)C(C)C)C(=O)N[C@@H](C)C(=O)N[C@@H](CC(N)=O)C(=O)N[C@H](C(N)=O)[C@@H](C)O
B3: Peptide 271 (peptide)
peptide: H[Aib]HGS[αMeF]TSDVSK[αMeF]LDSRAAK([γGlu-C18 diacid])D[αMeF]VQ[Aib]IANT-NH2
modifications: N-terminus assumed
SMILES: CC[C@H](C)[C@H](NC(=O)C(C)(C)NC(=O)[C@H](CCC(N)=O)NC(=O)[C@@H](NC(=O)[C@](C)(Cc1ccccc1)NC(=O)[C@H](CC(=O)O)NC(=O)[C@H](CCCCNC(=O)CC[C@H](NC(=O)CCCCCCCCCCCCCCCCC(=O)O)C(=O)O)NC(=O)[C@H](C)NC(=O)[C@H](C)NC(=O)[C@H](CCCNC(=N)N)NC(=O)[C@H](CO)NC(=O)[C@H](CC(=O)O)NC(=O)[C@H](CC(C)C)NC(=O)[C@](C)(Cc1ccccc1)NC(=O)[C@H](CCCCN)NC(=O)[C@H](CO)NC(=O)[C@@H](NC(=O)[C@H](CC(=O)O)NC(=O)[C@H](CO)NC(=O)[C@@H](NC(=O)[C@](C)(Cc1ccccc1)NC(=O)[C@H](CO)NC(=O)CNC(=O)[C@H](Cc1c[nH]cn1)NC(=O)C(C)(C)NC(=O)[C@@H](N)Cc1c[nH]cn1)[C@@H](C)O)C(C)C)C(C)C)C(=O)N[C@@H](C)C(=O)N[C@@H](CC(N)=O)C(=O)N[C@H](C(N)=O)[C@@H](C)O

Target: human glucagon receptor (human, UniProt P47871 26-477)
Sequence (P47871 26-477): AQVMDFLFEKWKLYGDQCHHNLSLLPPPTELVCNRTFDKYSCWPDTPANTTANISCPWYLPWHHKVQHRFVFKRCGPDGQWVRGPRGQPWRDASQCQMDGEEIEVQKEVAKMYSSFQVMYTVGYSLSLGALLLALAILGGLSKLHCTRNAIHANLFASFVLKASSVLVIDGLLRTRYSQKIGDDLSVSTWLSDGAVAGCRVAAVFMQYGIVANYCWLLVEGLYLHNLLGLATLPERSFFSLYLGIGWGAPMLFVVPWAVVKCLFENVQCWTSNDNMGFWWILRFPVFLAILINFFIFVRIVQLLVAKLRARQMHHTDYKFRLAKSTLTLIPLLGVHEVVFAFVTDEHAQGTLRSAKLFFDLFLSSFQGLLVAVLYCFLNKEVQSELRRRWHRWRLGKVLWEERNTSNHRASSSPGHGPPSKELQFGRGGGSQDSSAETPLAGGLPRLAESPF
Experiment: cell-based or functional assay

Binder	hGluc-R EC50 (pM), cAMP [pM]
H[Aib]HGS[αMeF]TSDVSK[αMeF]LDSR[Aib]AK([AEEA-AEEA-γGlu-γGlu-C18 diacid])D[αMeF]VESIANT-NH2 [Peptide 250]	1570
H[Aib]HGS[αMeF]TSDVSK[αMeF]LDSR[Aib]AK([AEEA-AEEA-γGlu-C18 diacid])DFVESIANT-NH2 (not fully specified) [Peptide 251]	248
H[Aib]HGS[αMeF]TSDVSK[αMeF]LDSR[Aib]AK([AEEA-AEEA-γGlu-C20 diacid])DFVESIANT-NH2 [Peptide 252]	1310
H[Aib]HGS[αMeF]TSDVSK[αMeF]LDSR[Aib]AK([AEEA-γGlu-C18 diacid])DFVESIANT-NH2 [Peptide 253]	53.1
H[Aib]HGS[αMeF]TSDVSK[αMeF]LDSR[Aib]AK([γGlu-C18 diacid])DFVESIANT-NH2 [Peptide 254]	125
H[Aib]HGS[αMeF]TSDVSK[αMeF]LDSQAAK([AEEA-AEEA-γGlu-γGlu-C20 diacid])D[αMeF]VQ[Aib]IANT-NH2 [Peptide 256]	1310
H[Aib]HGS[αMeF]TSDVSK[αMeF]LDSRAAK([(PEG)2-(PEG)2-γGlu-γGlu-C18 diacid])D[αMeF]VQ[Aib]IANT-NH2 [Peptide 258]	93.1
H[Aib]HGS[αMeF]TSDVSK[αMeF]LDSRAAK([AEEA-γGlu-AEEA-C18 diacid])D[αMeF]VQ[Aib]IANT-NH2 [Peptide 259]	34.8
H[Aib]HGS[αMeF]TSDVSK[αMeF]LDSRAAK([AEEA-γGlu-AEEA-γGlu-C18 diacid])D[αMeF]VQ[Aib]IANT-NH2 [Peptide 260]	76.9
B1	29.4
H[Aib]HGS[αMeF]TSDVSK[αMeF]LDSRAAK([AEEA-γGlu-C18 diacid])D[αMeF]VQ[Aib]IANT-NH2 [Peptide 262]	11.7
H[Aib]HGS[αMeF]TSDVSK[αMeF]LDSRAAK([PEG4-γGlu-γGlu-C18 diacid])D[αMeF]VQ[Aib]IANT-NH2 [Peptide 263]	64.6
H[Aib]HGS[αMeF]TSDVSK[αMeF]LDSRAAK([(PEG)2-(PEG)2-γGlu-γGlu-C20 diacid])D[αMeF]VQ[Aib]IANT-NH2 [Peptide 264]	297
H[Aib]HGS[αMeF]TSDVSK[αMeF]LDSRAAK([AEEA-γGlu-AEEA-C20 diacid])D[αMeF]VQ[Aib]IANT-NH2 [Peptide 265]	131
H[Aib]HGS[αMeF]TSDVSK[αMeF]LDSRAAK([AEEA-γGlu-AEEA-γGlu-C20 diacid])D[αMeF]VQ[Aib]IANT-NH2 [Peptide 266]	293
H[Aib]HGS[αMeF]TSDVSK[αMeF]LDSRAAK([PEG4-γGlu-C20 diacid])D[αMeF]VQ[Aib]IANT-NH2 [Peptide 267]	128
B2	29.3
H[Aib]HGS[αMeF]TSDVSK[αMeF]LDSRAAK([PEG4′-γGlu-γGlu-C20 diacid])D[αMeF]VQ[Aib]IANT-NH2 [Peptide 269]	271
H[Aib]HGS[αMeF]TSDVSK[αMeF]LDSRAAK([γGlu-γGlu-C18 diacid])D[αMeF]VQ[Aib]IANT-NH2 [Peptide 270]	31.3
B3	28
H[Aib]HGS[αMeF]TSDVSK[αMeF]LDSRAAK([AEEA-AEEA-C18 diacid])D[αMeF]VQ[Aib]IANT-NH2 [Peptide 272]	14.3
H[Aib]HGS[αMeF]TSDVSK[αMeF]LDSRAAK([AEEA-C18 diacid])D[αMeF]VQ[Aib]IANT-NH2 [Peptide 273]	23.3
H[Aib]HGS[αMeF]TSDVSK[αMeF]LDSRAAK([AEEA-γGlu-γGlu-C18 diacid])D[αMeF]VQ[Aib]IANT-NH2 [Peptide 274]	31.3
H[Aib]HGS[αMeF]TSDVSK[αMeF]LDSRAAK([γGlu-γGlu-C20 diacid])D[αMeF]VQ[Aib]IANT-NH2 [Peptide 275]	175
H[Aib]HGS[αMeF]TSDVSK[αMeF]LDSRAAK([γGlu-C20 diacid])D[αMeF]VQ[Aib]IANT-NH2 [Peptide 276]	91.4
H[Aib]HGS[αMeF]TSDVSK[αMeF]LDSRAAK([AEEA-AEEA-C20 diacid])D[αMeF]VQ[Aib]IANT-NH2 [Peptide 277]	57.3

Target: human GLP-1 receptor (human, UniProt P43220 24-463)
Experiment: cell-based or functional assay

Binder	hGLP-1R EC50 (pM), cAMP [pM]
H[Aib]HGS[αMeF]TSDVSK[αMeF]LDSR[Aib]AK([AEEA-AEEA-γGlu-γGlu-C18 diacid])D[αMeF]VESIANT-NH2 [Peptide 250]	601
H[Aib]HGS[αMeF]TSDVSK[αMeF]LDSR[Aib]AK([AEEA-AEEA-γGlu-C18 diacid])DFVESIANT-NH2 (not fully specified) [Peptide 251]	79.8
H[Aib]HGS[αMeF]TSDVSK[αMeF]LDSR[Aib]AK([AEEA-AEEA-γGlu-C20 diacid])DFVESIANT-NH2 [Peptide 252]	119
H[Aib]HGS[αMeF]TSDVSK[αMeF]LDSR[Aib]AK([AEEA-γGlu-C18 diacid])DFVESIANT-NH2 [Peptide 253]	75.5
H[Aib]HGS[αMeF]TSDVSK[αMeF]LDSR[Aib]AK([γGlu-C18 diacid])DFVESIANT-NH2 [Peptide 254]	102
H[Aib]HGS[αMeF]TSDVSK[αMeF]LDSQAAK([AEEA-AEEA-γGlu-γGlu-C20 diacid])D[αMeF]VQ[Aib]IANT-NH2 [Peptide 256]	346
H[Aib]HGS[αMeF]TSDVSK[αMeF]LDSRAAK([(PEG)2-(PEG)2-γGlu-γGlu-C18 diacid])D[αMeF]VQ[Aib]IANT-NH2 [Peptide 258]	34
H[Aib]HGS[αMeF]TSDVSK[αMeF]LDSRAAK([AEEA-γGlu-AEEA-C18 diacid])D[αMeF]VQ[Aib]IANT-NH2 [Peptide 259]	19.1
H[Aib]HGS[αMeF]TSDVSK[αMeF]LDSRAAK([AEEA-γGlu-AEEA-γGlu-C18 diacid])D[αMeF]VQ[Aib]IANT-NH2 [Peptide 260]	33.1
B1	16.2
H[Aib]HGS[αMeF]TSDVSK[αMeF]LDSRAAK([AEEA-γGlu-C18 diacid])D[αMeF]VQ[Aib]IANT-NH2 [Peptide 262]	13
H[Aib]HGS[αMeF]TSDVSK[αMeF]LDSRAAK([PEG4-γGlu-γGlu-C18 diacid])D[αMeF]VQ[Aib]IANT-NH2 [Peptide 263]	25.4
H[Aib]HGS[αMeF]TSDVSK[αMeF]LDSRAAK([(PEG)2-(PEG)2-γGlu-γGlu-C20 diacid])D[αMeF]VQ[Aib]IANT-NH2 [Peptide 264]	69.5
H[Aib]HGS[αMeF]TSDVSK[αMeF]LDSRAAK([AEEA-γGlu-AEEA-C20 diacid])D[αMeF]VQ[Aib]IANT-NH2 [Peptide 265]	71.2
H[Aib]HGS[αMeF]TSDVSK[αMeF]LDSRAAK([AEEA-γGlu-AEEA-γGlu-C20 diacid])D[αMeF]VQ[Aib]IANT-NH2 [Peptide 266]	66.5
H[Aib]HGS[αMeF]TSDVSK[αMeF]LDSRAAK([PEG4-γGlu-C20 diacid])D[αMeF]VQ[Aib]IANT-NH2 [Peptide 267]	65.6
B2	39.5
H[Aib]HGS[αMeF]TSDVSK[αMeF]LDSRAAK([PEG4′-γGlu-γGlu-C20 diacid])D[αMeF]VQ[Aib]IANT-NH2 [Peptide 269]	52
H[Aib]HGS[αMeF]TSDVSK[αMeF]LDSRAAK([γGlu-γGlu-C18 diacid])D[αMeF]VQ[Aib]IANT-NH2 [Peptide 270]	24.4
B3	54.6
H[Aib]HGS[αMeF]TSDVSK[αMeF]LDSRAAK([AEEA-AEEA-C18 diacid])D[αMeF]VQ[Aib]IANT-NH2 [Peptide 272]	15.7
H[Aib]HGS[αMeF]TSDVSK[αMeF]LDSRAAK([AEEA-C18 diacid])D[αMeF]VQ[Aib]IANT-NH2 [Peptide 273]	22.1
H[Aib]HGS[αMeF]TSDVSK[αMeF]LDSRAAK([AEEA-γGlu-γGlu-C18 diacid])D[αMeF]VQ[Aib]IANT-NH2 [Peptide 274]	27.1
H[Aib]HGS[αMeF]TSDVSK[αMeF]LDSRAAK([γGlu-γGlu-C20 diacid])D[αMeF]VQ[Aib]IANT-NH2 [Peptide 275]	111
H[Aib]HGS[αMeF]TSDVSK[αMeF]LDSRAAK([γGlu-C20 diacid])D[αMeF]VQ[Aib]IANT-NH2 [Peptide 276]	143
H[Aib]HGS[αMeF]TSDVSK[αMeF]LDSRAAK([AEEA-AEEA-C20 diacid])D[αMeF]VQ[Aib]IANT-NH2 [Peptide 277]	49.5
